Article PMC5056641 (The Biochemical journal, 2014)
Blank lines part the entries; values can stand above or below the binder they belong to.

Columns and labels:
[1] = target: His-CLK1 (Cdc2-like kinase 1, mouse) (mouse, UniProt P22518 1-483); test: pull-down
GST-SRSF1 = GST-SRSF1 (human, UniProt Q07955 1-248); test: pull-down
Sequence of GST-SRSF1 (Q07955 whole entry): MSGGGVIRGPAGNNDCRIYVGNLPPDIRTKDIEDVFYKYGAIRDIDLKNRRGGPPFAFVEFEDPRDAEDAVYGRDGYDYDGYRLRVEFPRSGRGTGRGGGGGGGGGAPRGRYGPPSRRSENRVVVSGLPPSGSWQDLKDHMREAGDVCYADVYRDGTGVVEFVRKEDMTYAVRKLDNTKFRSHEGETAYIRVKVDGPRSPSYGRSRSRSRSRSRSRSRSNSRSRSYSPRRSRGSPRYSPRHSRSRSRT

- binding result [1]: binds
B1: GST-N (CLK1 residues 1-160) (domain or fragment, mouse, UniProt P22518 1-160, looked up)
chain: MRHSKRTYCPDWDERDWDYGTWRSSSSHKRKKRSHSSAREQKRCRYDHSKTTDSYYLESRSINEKAYHSRRYVDEYRNDYMGYEPGHPYGEPGSRYQMHSSKSSGRSGRSSYKSKHRSRHHTSQHHSHGKSHRRKRSRSVEDDEEGHLICQSGDVLSARY

- binding result (GST-SRSF1): binds
B2: His-N (CLK1 residues 1-160) (domain or fragment, mouse, UniProt P22518 1-160, looked up)
chain: B1 chain
